The text below walks through data of the supplement of paper PMC7877785.

± gives the uncertainty stated by the source.

A short description of the data set: self-splicing fitness, log relative to wild type (ln ratio); higher = more splicing; Tetrahymena group I intron in knt gene, E. coli kanamycin selection, DiMSum; sequences stand for … in CUCUCU…GGAGGGAAAAGUUAUCAGGCAUGCACCUGGUAGCUAGUCUUUAAACCAAUAGAUUGCAUCGGUUUAAAAGGCAAGACCGUCAAAUUGCGGGAAAGGGGUCAACAGCCGUUCAGUACCAAGUCUCAGGGGAAACUUUGAGAUGGCCUUGCAAAGGGUAUGGUAAUAAGCUGACGGACAUGGUCCUAACCACGCAGCCAAGUCCUAAGUCAACAGAUCUUCUGUUGAUAUGGAUGCAGUUCACAGACUAAAUGUCGGUCGGGGAAGAUGUAUUCUUCUCAUAAGAUAUAGUCGGACCUCUCCUUAAUGGGAGCUAGCGGAUGAAGUGAUGCAACACUGGAGCCGCUGGGAACUAAUUUGUAUGCGAAAGUAUAUUGAUUAGUUUUGGAGUACUCGUGGUCG
A digest of the protocol:
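The eight P1ex-region nucleotides of an intron in the knt kanamycin-resistance gene on pET-22b(+) were all randomised and the library put into E. coli BL21(DE3). Six replicate transformations were grown overnight at 37°C or 30°C on LB agar with or without 25 μg/mL kanamycin, together with 100 μg/mL carbenicillin, 50 μM IPTG and 0.2% rhamnose. Colonies were pooled and amplicon-sequenced on an Illumina HiSeq 2500. Fitness from DiMSum is the error-weighted combination of wild-type-normalised replicate fold changes, kanamycin over none.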

UGACAGCAAUAUUACGCUAG: the “self-splicing fitness (ln)” value (30 °C) was -1.37 ± 0.076 and the “self-splicing fitness (ln)” value (37 °C) was -0.358 ± 0.11.
On the same counts, the results for GAGUAGCAAUAUUACGUGGA are -3.37 ± 0.28 and -2.52 ± 0.17.
In the case of GUGUAGCAAUAUUACGCGUU, where the note is “37 °C”, the “self-splicing fitness (ln)” value is -0.621 ± 0.17.
Turning to UACCAGCAAUAUUACGAAUC, the “self-splicing fitness (ln)” value (30 °C) is -2.37 ± 0.2 and the “self-splicing fitness (ln)” value (37 °C) was -1.05 ± 0.23.
UAUCAGCAAUAUUACGUACC: the “self-splicing fitness (ln)” value was -2.13 ± 0.18 (30 °C) and -0.91 ± 0.21 (37 °C).
On the same counts, the results for GAGUAGCAAUAUUACGUUCU are -2.18 ± 0.18 and -2.56 ± 0.21.
As to AAUUAGCAAUAUUACGGAGU, the “self-splicing fitness (ln)” value reads like this: (30 °C) -2.69 ± 0.2; (37 °C) -1.02 ± 0.17.
On the same counts, the results for GGAUAGCAAUAUUACGACGA are -1.43 ± 0.12 and -0.57 ± 0.1.
In the case of AUCCAGCAAUAUUACGAUAC, the “self-splicing fitness (ln)” value by setting is: (30 °C) -2.91 ± 0.23; (37 °C) -0.914 ± 0.15.
With GGAGAGCAAUAUUACGUGAG, the “self-splicing fitness (ln)” value is, setting by setting: (30 °C) -3.33 ± 0.23; (37 °C) -1.56 ± 0.2.
As for ACUUAGCAAUAUUACGCGAA, the “self-splicing fitness (ln)” value (30 °C) is -1.74 ± 0.12 and the “self-splicing fitness (ln)” value (37 °C) is -2.14 ± 0.2.
On the same counts, the results for UAGAAGCAAUAUUACGCCAA are -1.44 ± 0.29 and -1.39 ± 0.28.
In the case of GCAUAGCAAUAUUACGGGGG, the “self-splicing fitness (ln)” value (30 °C) was -2.53 ± 0.23 and the “self-splicing fitness (ln)” value (37 °C) was -2.13 ± 0.23.
In the same order, the values of GAAUAGCAAUAUUACGUAUG are -1.56 ± 0.12 and -1.04 ± 0.18.
In the case of GGUGAGCAAUAUUACGCGUA, the “self-splicing fitness (ln)” value runs as follows: (30 °C) -1.95 ± 0.3; (37 °C) -0.54 ± 0.21.
On the same counts, the results for CAGUAGCAAUAUUACGGGCG are -0.256 ± 0.089 and 0.0762 ± 0.098.
On the same counts, the results for UGCGAGCAAUAUUACGUUUA are -2.19 ± 0.16 and -2.99 ± 0.14.
In the same order, the values of CUCCAGCAAUAUUACGCCGG are -3.83 ± 0.26 and -2.98 ± 0.24.
On to AUUGAGCAAUAUUACGACAC, for which the “self-splicing fitness (ln)” value is, setting by setting: (30 °C) -2.36 ± 0.19; (37 °C) -1.45 ± 0.22.
With UAGUAGCAAUAUUACGAUUG, the “self-splicing fitness (ln)” value (30 °C) is -0.0683 ± 0.084 and the “self-splicing fitness (ln)” value (37 °C) is -0.0425 ± 0.12.
In the same order, the values of ACAGAGCAAUAUUACGCCAU are -3.46 ± 0.42 and -1.97 ± 0.23.
On the same counts, the results for AGGAAGCAAUAUUACGUACU are -1.76 ± 0.12 and -0.989 ± 0.19.
In the same order, the values of UCGGAGCAAUAUUACGUAUU are -4.15 ± 0.18 and -2.34 ± 0.15.
In the case of ACAGAGCAAUAUUACGCACG, the “self-splicing fitness (ln)” value is -3.11 ± 0.22 (30 °C) and -3.43 ± 0.25 (37 °C).
Take ACAUAGCAAUAUUACGAACA: the “self-splicing fitness (ln)” value (30 °C) was determined as 0.105 ± 0.14 and the “self-splicing fitness (ln)” value (37 °C) is -1.05 ± 0.17.
On to UACAAGCAAUAUUACGGUUU, for which the “self-splicing fitness (ln)” value (30 °C) was -1.86 ± 0.093 and the “self-splicing fitness (ln)” value (37 °C) was -0.738 ± 0.095.
On the same counts, the results for AUGGAGCAAUAUUACGGCAG are -3.04 ± 0.34 and -1.73 ± 0.5.
On to GGCCAGCAAUAUUACGAGGA, for which the “self-splicing fitness (ln)” value (37 °C) was -1.26 ± 0.15.
With AAGCAGCAAUAUUACGAAUU, the “self-splicing fitness (ln)” value reads like this: (30 °C) -0.851 ± 0.069; (37 °C) 0.12 ± 0.099.
As for GCUCAGCAAUAUUACGCUGA, for the setting “30 °C”, the “self-splicing fitness (ln)” value was -2.82 ± 0.35.
On to CCUCAGCAAUAUUACGCAGU, for which the “self-splicing fitness (ln)” value reads like this: (30 °C) -3.09 ± 0.22; (37 °C) -1.67 ± 0.28.
In the same order, the values of UGUGAGCAAUAUUACGGAGA are -3.34 ± 0.28 and -2.29 ± 0.31.
On the same counts, the results for UCCUAGCAAUAUUACGAGGA are -2.59 ± 0.48 and -2.62 ± 0.35.
As for GAUAAGCAAUAUUACGAACA, the “self-splicing fitness (ln)” value is, setting by setting: (30 °C) -1.02 ± 0.092; (37 °C) -0.468 ± 0.097.
In the case of AUACAGCAAUAUUACGAUUU, the “self-splicing fitness (ln)” value runs as follows: (30 °C) -0.0463 ± 0.053; (37 °C) 0.498 ± 0.073.
On the same counts, the results for CGAAAGCAAUAUUACGUAUG are -1.15 ± 0.057 and -0.533 ± 0.083.
In the same order, the values of CAUGAGCAAUAUUACGAUCA are -2.99 ± 0.15 and -2.24 ± 0.16.
Turning to UUAUAGCAAUAUUACGAGGG, the “self-splicing fitness (ln)” value reads like this: (30 °C) -3.47 ± 0.26; (37 °C) -2.3 ± 0.27.
